# Test: Protein integrity of encapsulated hGH by size exclusion HPLC (SEC-HPLC): dimer, polymer and aggregate forms
# Format: physicochemical
# Conditions: before encapsulation
# Protocol: Three batches of maltodextrin microspheres were prepared (50% W/W, 1 ml, 1 ml and 1.8 ml, respectively, in sodium acetate, 10 mM, pH 6.4, 2 mM zinc acetate) in which the GH was suspended manually. The compositions were transferred to Miglyol 829 (10, 20 and 30 ml, respectively), W/O emulsions were created by homogenization (Turrax) and left under refrigeration over night (about 16 hours), then centrifuged (Sorvall SS34, 7000 rpm, 10 min) and washed three times with cold acetone (about 30 g, centrifugation 5 min), allowed to air dry and sieved. The batches were sieved and then pooled. […] The protein quality was determined after centrifugation using HPLC size exlusion chromatography (SEC-HPLC, TSK2000 SWxl, Tosoh Corporation) according to Reslow et al. (supra). […] The fractions were pooled to provide about 0.57 g of cores.
# The core loading was about 75% on the pooled batches. Protein integrity was determined after suspending the cores in a buffer (50 mM HEPES, 10 mM EDTA, pH 7.3). After gentle mixing for about one hour the cores had dissolved.
# Free flowing single core microcapsules were obtained as evaluated by light microscopy. Protein integrity was determined essentially according to Reslow et al. (supra), including removal of the PLGA coating with a mixture of methylene chloride and acetone.
substance,measurement,setting,value
Human growth hormone [hGH],dimer content of hGH starting material / before immobilisation,,approximately 2.4%
same,dimer content of hGH starting material / before immobilisation,listed as GH,about 2.4%
